Patent US20090202429A1 (TRUSTEES OF COLUMBIA UNIVERSITY IN THE CITY OF NEW YORK, published 2009)
One block for each binder: values may come before it.

B1: murine platelet glycoprotein Ib alpha (GPIb alpha), on mouse platelets (receptor, UniProt O35930 17-734, looked up)
chain: QHTCSISKVTSLLEVNCENKKLTALPADLPADTGILHLGENQLGTFSTASLVHFTHLTYLYLDRCELTSLQTNGKLIKLENLDLSHNNLKSLPSLGWALPALTTLDVSFNKLGSLSPGVLDGLSQLQELYLQNNDLKSLPPGLLLPTTKLKKLNLANNKLRELPSGLLDGLEDLDTLYLQRNWLRTIPKGFFGTLLLPFVFLHANSWYCDCEILYFRHWLQENANNVYLWKQGVDVKDTTPNVASVRCANLDNAPVYSYPGKGCPTSSGDTDYDDYDDIPDVPATRTEVKFSTNTKVHTTHWSLLAAAPSTSQDSQMISLPPTHKPTKKQSTFIHTQSPGFTTLPETMESNPTFYSLKLNTVLIPSPTTLEPTSTQATPEPNIQPMLTTSTLTTPEHSTTPVPTTTILTTPEHSTIPVPTTAILTTPKPSTIPVPTTATLTTLEPSTTPVPTTATLTTPEPSTTLVPTTATLTTPEHSTTPVPTTATLTTPEHSTTPVPTTATLTTPEPSTTLTNLVSTISPVLTTTLTTPESTPIETILEQFFTTELTLLPTLESTTTIIPEQNSFLNLPEVALVSSDTSESSPFLNSDFCCFLPLGFYVLGLLWLLFASVVLILLLTWTWHVTPHSLDMEQSAALATSTHTTSLEVQRARQVTMPRAWLLFLQGSLPTFRSSLFLWVRPNGRVGPLVAGRRPSALSQGRGQDLLGTVGIRYSGHSL
notes: whole, on cells; also called murine GPIb alpha; murine platelets

Legend:
[1] = target: T1, murine plasma VWF with the 1326R>H mutation (from homozygous VWF 1326R>H knock-in mice) (mouse, UniProt Q8CIZ8 764-2813); test: not told at this place
T1 construct: Plasma-derived multimeric VWF; also called R1326H mutant mouse VWF; mutant mouse plasma VWF
T1 sequence (Q8CIZ8 other isoform, or with tags, fused parts or gaps limits assumed): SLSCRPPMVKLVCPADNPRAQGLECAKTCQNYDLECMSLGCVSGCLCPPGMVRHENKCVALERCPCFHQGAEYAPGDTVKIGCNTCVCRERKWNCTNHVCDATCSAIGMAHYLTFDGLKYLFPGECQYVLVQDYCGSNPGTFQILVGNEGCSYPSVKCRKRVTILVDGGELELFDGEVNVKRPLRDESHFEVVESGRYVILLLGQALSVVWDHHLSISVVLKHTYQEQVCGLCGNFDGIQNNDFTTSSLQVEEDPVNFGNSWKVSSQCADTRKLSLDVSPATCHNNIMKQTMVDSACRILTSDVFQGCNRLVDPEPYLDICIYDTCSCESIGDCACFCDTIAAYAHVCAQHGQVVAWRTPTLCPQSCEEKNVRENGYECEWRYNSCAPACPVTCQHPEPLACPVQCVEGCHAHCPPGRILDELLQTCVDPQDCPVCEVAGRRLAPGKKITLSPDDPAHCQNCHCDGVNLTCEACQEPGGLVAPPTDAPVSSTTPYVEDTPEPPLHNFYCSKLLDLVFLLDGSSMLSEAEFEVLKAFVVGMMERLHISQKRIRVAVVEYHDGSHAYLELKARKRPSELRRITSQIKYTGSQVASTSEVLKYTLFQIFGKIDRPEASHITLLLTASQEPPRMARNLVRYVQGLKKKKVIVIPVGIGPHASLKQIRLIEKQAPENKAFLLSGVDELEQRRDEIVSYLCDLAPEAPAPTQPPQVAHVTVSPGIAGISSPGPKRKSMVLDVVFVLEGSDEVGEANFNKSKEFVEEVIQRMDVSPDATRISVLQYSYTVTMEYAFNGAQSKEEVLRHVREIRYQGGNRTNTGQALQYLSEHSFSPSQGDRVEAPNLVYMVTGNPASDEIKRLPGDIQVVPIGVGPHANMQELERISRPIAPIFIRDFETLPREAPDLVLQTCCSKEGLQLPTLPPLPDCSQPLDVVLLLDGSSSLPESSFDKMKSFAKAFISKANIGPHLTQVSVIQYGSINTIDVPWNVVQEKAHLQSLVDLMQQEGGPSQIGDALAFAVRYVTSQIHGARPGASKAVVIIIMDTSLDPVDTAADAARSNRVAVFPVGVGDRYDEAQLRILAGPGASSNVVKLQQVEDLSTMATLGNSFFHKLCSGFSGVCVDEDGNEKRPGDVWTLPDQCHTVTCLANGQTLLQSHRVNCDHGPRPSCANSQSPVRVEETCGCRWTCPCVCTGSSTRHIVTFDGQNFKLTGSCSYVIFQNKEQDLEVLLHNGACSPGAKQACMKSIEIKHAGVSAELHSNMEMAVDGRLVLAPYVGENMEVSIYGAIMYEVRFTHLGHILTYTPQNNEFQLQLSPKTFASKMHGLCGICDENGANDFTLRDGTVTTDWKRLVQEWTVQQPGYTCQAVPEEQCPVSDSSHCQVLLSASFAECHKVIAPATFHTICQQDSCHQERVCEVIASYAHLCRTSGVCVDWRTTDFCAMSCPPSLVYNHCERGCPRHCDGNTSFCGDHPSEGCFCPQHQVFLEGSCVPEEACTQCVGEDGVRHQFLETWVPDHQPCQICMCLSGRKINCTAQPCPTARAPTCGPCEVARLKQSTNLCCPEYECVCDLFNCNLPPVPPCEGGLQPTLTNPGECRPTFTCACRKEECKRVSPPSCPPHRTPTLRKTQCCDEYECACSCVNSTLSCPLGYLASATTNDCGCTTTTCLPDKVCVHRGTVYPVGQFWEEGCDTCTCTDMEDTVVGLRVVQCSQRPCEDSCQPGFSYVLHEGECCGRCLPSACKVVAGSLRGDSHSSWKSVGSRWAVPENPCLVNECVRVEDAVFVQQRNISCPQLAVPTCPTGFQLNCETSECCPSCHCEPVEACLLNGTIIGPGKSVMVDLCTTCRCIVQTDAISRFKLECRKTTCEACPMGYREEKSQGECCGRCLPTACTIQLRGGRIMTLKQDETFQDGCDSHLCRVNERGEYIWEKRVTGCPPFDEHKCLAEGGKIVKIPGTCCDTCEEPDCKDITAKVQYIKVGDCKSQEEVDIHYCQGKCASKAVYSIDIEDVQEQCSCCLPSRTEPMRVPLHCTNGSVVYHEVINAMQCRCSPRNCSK

[2] = target: B1; test: panel B: coated beads on surface-immobilized murine platelets in flow, ln of bead tethering events against time; shear stress 0.5 dyn cm-2; R2 0.96
Procedure: (§1) The cellular off-rates are determined by plotting the natural log of the number of VWF-A1 coated microspheres that interacted as a function of time after the initiation of tethering, the slope of the line=−koff (s⁻¹) which is the inverse of the bond lifetime. The force acting on the tether bond was calculated from force balance equations as stated above and koff plotted as a function of these forces.
(§2) The use of beads with one uniform size and shape permits determination of the relationship between wall shear stress and the force directly acting on the GPIb alpha-VWF-A1 tether bond (Fb), a parameter difficult to estimate for discoid-shaped objects such as platelets. […] This antibody was made by immunizing Fischer 344 rats (3-4 months old) with recombinant WT protein. […] Spleens from animals with the highest antibody titers were harvested and splenocytes fused with Sp2/0 mouse myeloma cells (54).

[3] = target: B1; test: panel B: coated beads on surface-immobilized murine platelets in flow, ln of bead tethering events against time; shear stress 2.0 dyn cm-2; R2 0.95
Procedure: as §1, §2

[4] = target: B1; test: panel B: coated beads on surface-immobilized murine platelets in flow, ln of bead tethering events against time; shear stress 3.0 dyn cm-2; R2 0.98
Procedure: as §1, §2

[5] = target: B1; test: coated beads on surface-immobilized murine platelets in flow, ln of bead tethering events against time; shear stress 0.5 dyn cm-2; R2 0.96
Procedure: as §1, §2

[6] = target: B1; test: coated beads on surface-immobilized murine platelets in flow, ln of bead tethering events against time; shear stress 1.0 dyn cm-2; R2 0.95
Procedure: as §1, §2

[7] = target: B1; test: coated beads on surface-immobilized murine platelets in flow, ln of bead tethering events against time; shear stress 2.0 dyn cm-2; R2 0.98
Procedure: as §1, §2

[8] = target: B1; test: cell-based or functional assay
[9] = target: B1; test: platelet adhesion to coated recombinant VWF-A1, flow chamber, 800 s^-1
[10] = target: T2, human platelet glycoprotein Ib alpha (GPIb alpha), on human platelets (human, UniProt P07359 17-652); test: human platelets perfused over coated mutant VWF-A1, wall shear rate 800 s-1; the sheet states that R563H corresponds to R1326H
T2 construct: whole, on cells; also called GPIbα; human GPIb alpha
T2 sequence (P07359 17-652): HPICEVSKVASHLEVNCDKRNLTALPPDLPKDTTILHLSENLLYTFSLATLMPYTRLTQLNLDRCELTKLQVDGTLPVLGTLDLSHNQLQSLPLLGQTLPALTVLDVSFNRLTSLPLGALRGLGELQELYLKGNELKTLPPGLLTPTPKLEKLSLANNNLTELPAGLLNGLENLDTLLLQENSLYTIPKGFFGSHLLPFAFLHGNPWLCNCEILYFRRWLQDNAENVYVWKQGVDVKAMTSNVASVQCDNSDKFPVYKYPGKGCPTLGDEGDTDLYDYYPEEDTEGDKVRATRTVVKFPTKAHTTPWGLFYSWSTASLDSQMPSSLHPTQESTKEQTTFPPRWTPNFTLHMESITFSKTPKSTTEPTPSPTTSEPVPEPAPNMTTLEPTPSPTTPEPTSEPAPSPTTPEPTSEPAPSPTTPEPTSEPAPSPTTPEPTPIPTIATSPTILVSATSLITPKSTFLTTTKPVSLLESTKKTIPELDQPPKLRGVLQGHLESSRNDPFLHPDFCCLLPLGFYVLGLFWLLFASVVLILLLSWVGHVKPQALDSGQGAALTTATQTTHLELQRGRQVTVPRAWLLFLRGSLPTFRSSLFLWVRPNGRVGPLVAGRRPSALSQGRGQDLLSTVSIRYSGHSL

[11] = target: T2, human platelet glycoprotein Ib alpha …; test: human platelets attached to coated human VWF-A1 against wall shear rate
[12] = target: T2, human platelet glycoprotein Ib alpha …; test: interaction times of VWF-A1 coated beads on surface-immobilized platelets, wall shear stress 1 dyn cm^-2
Procedure: The duration of these interactions are measured by recording images from a Nikon X60 DIC objective (oil immersion) viewed at a frame rate of 235 fps (Speed Vision Technologies, San Diego, Calif.) and subjected to wall shear stresses (WSS) ranging from 0.5 to 3.0 dyn cm⁻². The cellular off-rates are determined by plotting the natural log of the number of VWF-A1 coated microspheres that interacted as a function of time after the initiation of tethering, the slope of the line=−koff (s⁻¹) which is the inverse of the bond lifetime. The force acting on the tether bond was calculated from force balance equations as stated above and koff plotted as a function of these forces.

Binder: B1
binding result [1]: binds

B2: recombinant murine VWF-A1 protein, wild type (amino acid residues 1238 to 1471, made in bacteria, His tag) (ligand)
chain: QEPGGLVAPPTDAPVSSTTPYVEDTPEPPLHNFYCSKLLDLVFLLDGSSMLSEAEFEVLKAFVVGMMERLHISQKRIRVAVVEYHDGSRAYLELKARKRPSELRRITSQIKYTGSQVASTSEVLKYTLFQIFGKIDRPEASHITLLLTASQEPPRMARNLVRYVQGLKKKKVIVIPVGIGPHASLKQIRLIEKQAPENKAFLLSGVDELEQRRDEIVSYLCDLAPEAPAPTQPP
modifications: single intra-chain disulfide bond between residues 1272 and 1458
notes: Treated as one molecule; also called M VWF-A1; mouse VWF-A1; not shown: amino-terminal 10 amino acids (including 6x histidine) contributed by the vector pQE9
koff [2]: 5.1 s⁻¹
koff [3]: 8.4 s⁻¹
koff [4]: 9.9 s⁻¹

B5: recombinant human VWF-A1 protein with 1309I>V and 1324G>S (ligand)
chain: QEPGGLVVPPTDAPVSPTTLYVEDISEPPLHDFYCSRLLDLVFLLDGSSRLSEAEFEVLKAFVVDMMERLRVSQKWVRVAVVEYHDSSHAYIGLKDRKRPSELRRIASQVKYAGSQVASTSEVLKYTLFQIFSKIDRPEASRIALLLMASQEPQRMSRNFVRYVQGLKKKKVIVIPVGIGPHANLKQIRLIEKQAPENKAFVLSSVDELEQQRDEIVSYLCDLAPEAPPPTLPP
notes: also called doubly mutated protein; not shown: amino-terminal vector-derived tag with 6x histidine
binding result [11]: no binding

B6: recombinant human VWF-A1 protein with 1309I>V and 1326H>R (ligand)
chain: QEPGGLVVPPTDAPVSPTTLYVEDISEPPLHDFYCSRLLDLVFLLDGSSRLSEAEFEVLKAFVVDMMERLRVSQKWVRVAVVEYHDGSRAYIGLKDRKRPSELRRIASQVKYAGSQVASTSEVLKYTLFQIFSKIDRPEASRIALLLMASQEPQRMSRNFVRYVQGLKKKKVIVIPVGIGPHANLKQIRLIEKQAPENKAFVLSSVDELEQQRDEIVSYLCDLAPEAPPPTLPP
notes: as for B5
fold reduction in koff against the single mutant 1326H>R [12]: 2 fold
koff [12]: 8.5 s⁻¹

Further lines, results first:

koff [5]: 0.7 s⁻¹
koff [6]: 0.9 s⁻¹
koff [7]: 1.6 s⁻¹
B3: recombinant murine VWF-A1 protein with the type 2B mutation I1309V (1309I>V) (ligand)
chain: QEPGGLVAPPTDAPVSSTTPYVEDTPEPPLHNFYCSKLLDLVFLLDGSSMLSEAEFEVLKAFVVGMMERLHVSQKRIRVAVVEYHDGSRAYLELKARKRPSELRRITSQIKYTGSQVASTSEVLKYTLFQIFGKIDRPEASHITLLLTASQEPPRMARNLVRYVQGLKKKKVIVIPVGIGPHASLKQIRLIEKQAPENKAFLLSGVDELEQRRDEIVSYLCDLAPEAPAPTQPP
notes: also called M VWF-A1 protein containing the type 2B mutation I1309V; not shown: amino-terminal vector-derived tag with 6x histidine

translocation velocities of murine platelets, fold increase against the WT mouse protein, 800 s^-1 [8]: ~7 fold
fold reduction of platelet adhesion against the WT mouse protein [9]: ~5 fold
binding result [10]: binds
B4: recombinant murine VWF-A1 protein with 1326R>H (ligand)
chain: QEPGGLVAPPTDAPVSSTTPYVEDTPEPPLHNFYCSKLLDLVFLLDGSSMLSEAEFEVLKAFVVGMMERLHISQKRIRVAVVEYHDGSHAYLELKARKRPSELRRITSQIKYTGSQVASTSEVLKYTLFQIFGKIDRPEASHITLLLTASQEPPRMARNLVRYVQGLKKKKVIVIPVGIGPHASLKQIRLIEKQAPENKAFLLSGVDELEQRRDEIVSYLCDLAPEAPAPTQPP
notes: also called mutated murine protein; not shown: amino-terminal vector-derived tag with 6x histidine
